PMC2802452

Target: HLA-A2-mCFP (human)
Experiment: FRET or BRET

B1: Bap31-mYFP-KKEE (natural protein)
chain: MSLQWTAVATFLYAEVFVVLLLCIPFISPKRWQKIFKSRLVELLVSYGNTFFVVLIVILVLLVIDAVREIRKYDDVTEKVNLQNNPGAMEHFHMKLFRAQRNLYIAGFSLLLSFLLRRLVTLISQQATLLASNEAFKKQAESASEAAKKYMEENDQLKKGAAVDGGKLDVGNAEVKLEEENRSLKADLQKLKDELASTKQKLEKAENQVLAMRKQSEGLTKEYDRLLEEHAKLQAAVDGPMDKKEE
FRET efficiency at A:D of 1: 5% | fold FRET at A:D 1:1 after feeding Tax peptide, against controls: 2 fold
